Reference: publication PMC11405398

Target: spore coat protein GerQ (Bacillus amyloiquefaciens)
Assay: cryo-EM structure; native filaments extracted from B. amyloiquefaciens biofilm; helical reconstruction with C9 point group symmetry, rise 34.2 Å, twist −18.4°; 3.3 Å; partially unbundled filaments

Substance “spore coat protein GerQ (natural protein)” has a stoichiometry N (subunits per ring) of 9.
